Measurements published in patent US20150071950A1 (SAMSUNG ELECTRONICS, published 2015).
One block for each binder: values may come before it.

Key:
[1] = target: T1, human c-Met/Fc fusion protein (R&D Systems) (human, UniProt P08581 25-932); experiment: ELISA, hybridoma culture on plate-coated human c-Met/Fc fusion protein
T1 construct: Bought protein; also called c-Met-Fc (#358-MT/CF, R&D Systems); human c-Met/Fc protein; not shown: Fc part of the bought fusion protein
Protocol: The hybridoma cell culture obtained in Reference Example 1.1.2 was added in an amount of 50 μL to each well of the plates and incubated for 1 hour. The cells remaining unreacted were washed out with a sufficient amount of Tris-buffered saline and Tween 20 (TBST). Goat anti-mouse IgG-horseradish peroxidase (HRP) was added to the plates and incubated for 1 hour at room temperature. The plates were washed with a sufficient amount of TBST, followed by reacting the peroxidase with a substrate (OPD). Absorbance at 450 nm was measured on an ELISA reader.

[2] = target: T1, human c-Met/Fc fusion protein (R&D …); experiment: SPR, Biacore T100; antibody captured by human Fab capture on CM5 chip, c-Met-Fc as analyte
Protocol: (§1) An examination was made to see whether the antibody-drug conjugates maintain affinity for the antigen.
(§2) Briefly, a human Fab capture (GE Healthcare) was immobilized on CM5 chip (#BR-1005-30, GE) according to the manufacturer's instruction. […] The chip was regenerated with 10 mM Glycine-HCl (pH 1.5). To quantify the affinity, the data obtained above was fitted using BIAevaluation software (GE Healthcare, Biacore T100 evaluation software).

[3] = target: T1, human c-Met/Fc fusion protein (R&D …); experiment: SPR, Biacore T100; ADC captured by human Fab capture on CM5 chip, c-Met-Fc as analyte
Protocol: as §1, §2

T1 sequence (P08581 25-932 limits assumed): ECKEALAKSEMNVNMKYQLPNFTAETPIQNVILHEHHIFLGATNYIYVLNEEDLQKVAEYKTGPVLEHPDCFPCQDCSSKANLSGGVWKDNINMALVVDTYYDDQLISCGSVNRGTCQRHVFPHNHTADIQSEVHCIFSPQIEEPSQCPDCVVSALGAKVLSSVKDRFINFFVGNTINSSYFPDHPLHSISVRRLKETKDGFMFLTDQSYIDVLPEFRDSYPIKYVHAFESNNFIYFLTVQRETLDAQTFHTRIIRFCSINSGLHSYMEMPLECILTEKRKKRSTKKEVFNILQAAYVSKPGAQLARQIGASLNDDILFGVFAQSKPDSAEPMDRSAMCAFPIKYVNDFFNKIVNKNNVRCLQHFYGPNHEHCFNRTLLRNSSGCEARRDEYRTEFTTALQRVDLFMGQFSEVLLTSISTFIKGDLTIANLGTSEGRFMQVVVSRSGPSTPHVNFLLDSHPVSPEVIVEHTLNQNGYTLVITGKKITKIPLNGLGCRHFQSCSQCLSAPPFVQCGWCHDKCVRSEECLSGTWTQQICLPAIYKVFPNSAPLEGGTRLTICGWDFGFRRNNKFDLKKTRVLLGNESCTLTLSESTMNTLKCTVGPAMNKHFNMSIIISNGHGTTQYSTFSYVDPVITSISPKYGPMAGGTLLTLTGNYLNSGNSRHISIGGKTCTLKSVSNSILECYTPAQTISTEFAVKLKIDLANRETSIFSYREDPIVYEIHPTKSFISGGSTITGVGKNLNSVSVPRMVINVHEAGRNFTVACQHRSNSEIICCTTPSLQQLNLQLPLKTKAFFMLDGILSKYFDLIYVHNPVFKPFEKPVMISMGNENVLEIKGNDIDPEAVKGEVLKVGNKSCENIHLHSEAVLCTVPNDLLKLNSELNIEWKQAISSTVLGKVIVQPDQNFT

- binding result [1]: binds
B1: AbF46, mouse monoclonal antibody to c-Met (hybridoma KCLRF-BP-00220) (antibody, V domains shown)
VH: EVKLVESGGGLVQPGGSLRLSCATSGFTFTDYYMSWVRQPPGKALEWLGFIRNKANGYTTEYSASVKGRFTISRDNSQSILYLQMDTLRAEDSATYYCARDNWFAYWGQGTLVTVSA
VL: DILMTQSPSSLTVSAGEKVTMSCKSSQSLLASGNQNNYLAWHQQKPGRSPKMLIIWASTRVSGVPDRFIGSGSGTDFTLTINSVQAEDLAVYYCQQSYSAPLTFGAGTKLELK
notes: Tested as hybridoma culture supernatant in the selection ELISA; also called mouse antibody AbF46

- Kd [2]: 0.058 nM
- koff [2]: 3.42e-05 s⁻¹
- kon [2]: 589000 M⁻¹ s⁻¹
B2: anti-c-Met antibody L3-1Y/IgG2 (antibody, V domains shown)
VH: EVQLVESGGGLVQPGGSLRLSCAASGFTFTDYYMSWVRQAPGKGLEWLGFIRNKANGYTTEYSASVKGRFTISRDNSKNTLYLQMNSLRAEDTAVYYCARDNWFAYWGQGTLVTVSS
VL: DIQMTQSPSSLSASVGDRVTITCKSSQSLLASGNQNNYLAWYQQKPGKAPKMLIIWASTRVSGVPSRFSGSGSGTDFTLTISSLQPEDFATYYCQQSYSRPYTFGQGTKVEIKR
notes: also called huAbF46-H4-A1 (IgG2 Fc)

- Kd [3]: 0.0998 nM
- koff [3]: 3.63e-05 s⁻¹
- kon [3]: 364000 M⁻¹ s⁻¹
B3: antibody-drug conjugate ADC1 (L3-1Y/IgG2 conjugated with docetaxel by amine coupling, feed molar ratio 5; DAR 3.7) (antibody, V domains shown)
VH: B2 VH
VL: B2 VL
modifications: docetaxel-succinate (NHS-DTX) coupled to primary amines of lysine residues; sites not stated; DAR 3.7 for the whole antibody
notes: also called ADC (DAR 3.7)
